B1: Coiled-coil-helix-coiled-coil-helix domain-containing protein 2 (Homo sapiens), Q9Y6H1 (parent)
chain: MPRGSRSRTSRMAPPASRAPQMRAAPRPAPVAQPPAAAPPSAVGSSAAAPRQPGLMAQMATTAAGVAVGSAVGHTLGHAITGGFSGGSNAEPARPDITYQEPQGTQPAQQQQPCLYEIKQFLECAQNQGDIKLCEGFNEVLKQCRLANGLA
partner: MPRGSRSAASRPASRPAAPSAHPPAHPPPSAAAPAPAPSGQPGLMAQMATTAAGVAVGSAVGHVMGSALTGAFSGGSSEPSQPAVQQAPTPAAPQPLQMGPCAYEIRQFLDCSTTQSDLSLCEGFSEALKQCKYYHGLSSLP

Variants of: B1
Details: with chc10_human CHCHD10, Q8WYQ3

| Variant | effect of a mutation on the interaction |
| --- | --- |
| T61I | increasing interaction strength |
